Measurements as given in US20190077860A1 (EISAI R AND D MANAGEMENT, published 2019).

Columns and labels:
[1] = target: T1, human EphA4 extracellular region-SEAP-His protein (human, UniProt P54764 20-547); experiment: competition ELISA, competitor human Ephrin A5-Fc
T1 construct: also called hEphA4-SEAP-His
Procedure: (§1) Antibody A obtained in Example 1 was evaluated for its inhibitory activity against the binding between human EphA4 and its human ligand according to the following steps. Each well of a 96-well plate (Nunc) was coated with an anti-alkaline phosphatase antibody (Thermo Fisher Scientific). After incubation overnight at 4° C., each well was blocked with 1% BlockAce (DS Pharma Biomedical) at room temperature for 1 hour. After washing with 0.05% Tween 20/PBS (Thermo Fisher Scientific) three times, the human EphA4 extracellular region-SEAP-His protein obtained by the method of Example 1 was added (final concentration: 10 nM) to each well and incubated at room temperature for 1 hour. After washing three times, ligands and serially diluted antibody A (0, 0.003, 0.01, 0.03, 0.1, 0.3, 1, 3, 10, 30, 100, 300, 1000, and 3000 nM) or an EphA4 inhibitor KYL peptide ([…], 0, 0.003, 0.01, 0.03, 0.1, 0.3, 1, 3, 10, 30, 100, 300, 1000, and 3000 μM, its synthesis was outsourced to Toray Research Center) were added to each well. The ligands used were biotinylated human Ephrin A5-Fc chimera (R&D Systems, final concentration: 0.7 nM) and biotinylated human Ephrin B3-Fc chimera (R&D Systems, final concentration: 2.3 nM). […] The absorbance at 450 nm was read using a microplate reader (Molecular Devices or PerkinElmer). […]

[2] = target: rat EphA4 in rat hippocampal neurons (rat, UniProt D3ZZK3 20-986); experiment: cell-based or functional assay
[3] = target: T2, mouse EphA4 extracellular region-SEAP-His protein (mouse); experiment: competition ELISA, competitor biotinylated mouse Ephrin B2-Fc
Procedure: Antibody A-Fab and antibody A-F(ab′)₂ obtained in Example 5 were evaluated for their inhibitory activity against the binding between EphA4 and its ligand according to the following steps. Each well of a 96-well plate (Nunc) was coated with an anti-alkaline phosphatase antibody (Thermo Fisher Scientific). After incubation overnight at 4° C., each well was blocked with 1% BlockAce (DS Pharma Biomedical) at room temperature for 1 hour. After washing with 0.05% Tween 20/PBS (Thermo Fisher Scientific) three times, the mouse EphA4 extracellular region-SEAP-His protein obtained by the method of Example 1 was added (final concentration: 10 nM) to each well and incubated at room temperature for 1 hour. After washing three times, a ligand and serially diluted antibody A (0, 0.003, 0.01, 0.03, 0.1, 0.3, 1, 3, 10, 30, 100, 300, 1000, and 3000 nM), antibody A-Fab (0, 0.003, 0.01, 0.03, 0.1, 0.3, 1, 3, 10, 30, 100, 300, 1000, and 3000 nM), antibody A-F(ab′)₂ (0, 0.003, 0.01, 0.03, 0.1, 0.3, 1, 3, 10, 30, 100, 300, 1000, and 3000 nM), or the EphA4 inhibitor KYL peptide ([…], 0, 0.0003, 0.001, 0.003, 0.01, 0.03, 0.1, 0.3, 1, 3, 10, 30, 100, 300, 1000, and 3000 μM, its synthesis was outsourced to Toray Research Center) were added to each well. The ligand used was biotinylated mouse Ephrin B2-Fc chimera (R&D Systems, final concentration: 2.5 nM). After incubation at room temperature for 1 hour and subsequent washing three times, horseradish peroxidase-labeled streptavidin (GE Healthcare) was added thereto and incubated at room temperature for 1 hour. After washing three times, a TMBZ (3,3′,5,5′-tetramethylbenzidine, Sigma-Aldrich) solution was added to each well and incubated at room temperature for 2 minutes. An equal amount of a reaction stopping solution (1N H₂SO₄, Wako Pure Chemical Industries) was added to each well. The absorbance at 450 nm was read using a microplate reader (Molecular Devices or PerkinElmer).
Antibody A and antibody A-F(ab′)₂ had 1000 or more times the activity of the KYL peptide, and antibody A-Fab also had 10 or more times the activity of KYL peptide.

[4] = target: T2, mouse EphA4 extracellular …; experiment: competition ELISA: mouse EphA4 extracellular region-SEAP-His captured on the plate, blocked ligand mouse Ephrin B2-Fc chimera (0.6 nM)
Procedure: (§2) Antibody A obtained in Example 1 was evaluated for its inhibitory activity against the binding between mouse EphA4 and its mouse ligand according to the following steps. Each well of a 96-well plate (Nunc) was coated with an anti-alkaline phosphatase antibody (Thermo Fisher Scientific). After incubation overnight at 4° C., each well was blocked with 1% BlockAce (DS Pharma Biomedical) at room temperature for 1 hour. After washing with 0.05% Tween 20/PBS (Thermo Fisher Scientific) three times, the mouse EphA4 extracellular region-SEAP-His protein obtained by the method of Example 1 was added (final concentration: 10 nM) to each well and incubated at room temperature for 1 hour. After washing three times, ligands and serially diluted antibody A (0, 0.001, 0.003, 0.01, 0.03, 0.1, 0.3, 1,3, 10, 30, 100, 300, and 1000 nM) or a known EphA4 inhibitor KYL peptide ([…], 0, 0.003, 0.01, 0.03, 0.1, 0.3, 1, 3, 10, 30, and 100 μM, its synthesis was outsourced to Hokkaido System Science) or compound 1 (0, 0.03, 0.1, 0.3, 1,3, 10, 30, 100, 300, and 1000 μM, Formula 1, Matrix Scientific) were added to each well. The ligands used were mouse Ephrin A1-Fc chimera (R&D Systems, final concentration: 20 nM) and mouse Ephrin B2-Fc chimera (R&D Systems, final concentration: 0.6 nM). […] The absorbance at 450 nm was read using a microplate reader (Molecular Devices).

[5] = target: T2, mouse EphA4 extracellular …; experiment: competition ELISA, competitor mouse Ephrin B2-Fc
Procedure: as §2

[6] = target: T1, human EphA4 extracellular …; experiment: competition ELISA: human EphA4 extracellular region-SEAP-His captured on the plate, blocked ligand biotinylated human Ephrin A5-Fc chimera (0.7 nM)
Procedure: as §1

[7] = target: T1, human EphA4 extracellular …; experiment: competition ELISA, competitor human Ephrin B3-Fc
Procedure: as §1

[8] = target: T1, human EphA4 extracellular …; experiment: competition ELISA: human EphA4 extracellular region-SEAP-His captured on the plate, blocked ligand biotinylated human Ephrin B3-Fc chimera (2.3 nM)
Procedure: as §1

[9] = target: T2, mouse EphA4 extracellular …; experiment: competition ELISA: mouse EphA4 extracellular region-SEAP-His captured on the plate, blocked ligand mouse Ephrin A1-Fc chimera (20 nM)
Procedure: as §2

[10] = target: T1, human EphA4 extracellular …; experiment: SPR (Biacore T200), human EphA4 extracellular region-SEAP-His captured on an anti-His antibody CM5 chip, Fab as analyte at 6.2-500 nM, 1:1 fit
Procedure: (§3) Next, the binding affinity of antibody A-Fab and antibody A-F(ab′)₂ for mouse and human EphA4 was determined by surface plasmon resonance (SPR) using Biacore T200 (GE Healthcare). Antibody A obtained in Example 1 was used as a control for the comparison of each fragment. First, an anti-His tag antibody was immobilized on sensor chip CM5. The immobilization of the anti-His tag antibody on sensor chip CM5 was performed by the amine coupling method using N-hydroxysuccinimide (NHS) and N-ethyl-N′-(3-dimethylaminopropyl)carbodiimide hydrochloride (EDC). Ethanolamine was used in blocking (the sensor chip and the reagents for immobilization were all manufactured by GE Healthcare). The antibody was diluted with a buffer solution for immobilization (10 mM sodium acetate, pH 4.5) into 3 μg/mL and immobilized on the sensor chip according to the protocol attached to Biacore T200.
(§4) Mouse or human EphA4 extracellular region-SEAP-His protein was diluted with a running buffer solution HBS-EP (GE Healthcare, BR-1001-88), injected onto a flow cell for 120 seconds, and captured (amount of the protein captured: approximately 10 to 20 RU). Subsequently, antibody A (50, 16.7, 5.6, 1.9, 0.6, and 0 nM), antibody A-Fab (500, 166.7, 55.6, 18.5, 6.2, and 0 nM), or antibody A-F(ab′)₂ (50, 16.7, 5.6, 1.9, 0.6, and 0 nM) serially diluted using HBS-EP was added to the sensor chip for 120 seconds. […]

[11] = target: T2, mouse EphA4 extracellular …; experiment: SPR (Biacore T200), mouse EphA4 extracellular region-SEAP-His captured on an anti-His antibody CM5 chip, Fab as analyte at 6.2-500 nM, 1:1 fit
Procedure: as §3, §4

[12] = target: T2, mouse EphA4 extracellular …; experiment: SPR (Biacore T200), EphA4-SEAP-His captured by anti-His antibody; Fab (monovalent), not F(ab')2
Procedure: as §3, §4

[13] = target: T1, human EphA4 extracellular …; experiment: as above
Procedure: as §3, §4

[14] = target: T1, human EphA4 extracellular …; experiment: SPR (Biacore T200), human EphA4 extracellular region-SEAP-His captured on an anti-His antibody CM5 chip, F(ab')2 as analyte at 0.6-50 nM, 1:1 fit
Procedure: as §3, §4

[15] = target: T2, mouse EphA4 extracellular …; experiment: SPR (Biacore T200), EphA4-SEAP-His captured by anti-His antibody; F(ab')2 (bivalent), not Fab
Procedure: as §3, §4

[16] = target: T1, human EphA4 extracellular …; experiment: as above
Procedure: as §3, §4

[17] = target: T2, mouse EphA4 extracellular …; experiment: SPR (Biacore T200), mouse EphA4 extracellular region-SEAP-His captured on an anti-His antibody CM5 chip, F(ab')2 as analyte at 0.6-50 nM, 1:1 fit
Procedure: as §3, §4

T2 sequence (chain, as listed by the source limits assumed): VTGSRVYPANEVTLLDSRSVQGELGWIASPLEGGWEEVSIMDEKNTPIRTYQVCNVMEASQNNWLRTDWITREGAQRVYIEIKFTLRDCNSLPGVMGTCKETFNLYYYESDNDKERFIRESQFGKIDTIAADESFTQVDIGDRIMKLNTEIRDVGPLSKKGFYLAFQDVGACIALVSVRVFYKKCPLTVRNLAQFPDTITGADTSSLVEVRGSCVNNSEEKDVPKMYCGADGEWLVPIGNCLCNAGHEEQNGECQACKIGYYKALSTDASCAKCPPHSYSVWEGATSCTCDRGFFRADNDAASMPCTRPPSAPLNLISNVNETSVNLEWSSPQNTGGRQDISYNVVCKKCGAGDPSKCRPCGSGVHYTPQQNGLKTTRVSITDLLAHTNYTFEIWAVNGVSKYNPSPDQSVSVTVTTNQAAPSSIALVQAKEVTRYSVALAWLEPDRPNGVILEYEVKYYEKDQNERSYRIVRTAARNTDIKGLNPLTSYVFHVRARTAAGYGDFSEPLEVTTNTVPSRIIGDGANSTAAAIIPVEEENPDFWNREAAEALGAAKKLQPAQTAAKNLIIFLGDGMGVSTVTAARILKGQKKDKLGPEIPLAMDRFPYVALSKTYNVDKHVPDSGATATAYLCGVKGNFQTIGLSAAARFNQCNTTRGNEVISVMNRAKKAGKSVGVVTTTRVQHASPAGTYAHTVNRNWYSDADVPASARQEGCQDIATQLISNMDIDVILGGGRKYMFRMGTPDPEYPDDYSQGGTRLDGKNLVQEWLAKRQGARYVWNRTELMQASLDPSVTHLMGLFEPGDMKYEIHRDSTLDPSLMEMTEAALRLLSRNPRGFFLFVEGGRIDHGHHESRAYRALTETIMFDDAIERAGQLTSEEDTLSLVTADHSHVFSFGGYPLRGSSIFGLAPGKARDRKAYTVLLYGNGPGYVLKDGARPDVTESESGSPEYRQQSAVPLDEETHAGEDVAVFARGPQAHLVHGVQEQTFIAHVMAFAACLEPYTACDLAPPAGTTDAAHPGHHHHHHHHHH
T1 sequence (P54764 20-547): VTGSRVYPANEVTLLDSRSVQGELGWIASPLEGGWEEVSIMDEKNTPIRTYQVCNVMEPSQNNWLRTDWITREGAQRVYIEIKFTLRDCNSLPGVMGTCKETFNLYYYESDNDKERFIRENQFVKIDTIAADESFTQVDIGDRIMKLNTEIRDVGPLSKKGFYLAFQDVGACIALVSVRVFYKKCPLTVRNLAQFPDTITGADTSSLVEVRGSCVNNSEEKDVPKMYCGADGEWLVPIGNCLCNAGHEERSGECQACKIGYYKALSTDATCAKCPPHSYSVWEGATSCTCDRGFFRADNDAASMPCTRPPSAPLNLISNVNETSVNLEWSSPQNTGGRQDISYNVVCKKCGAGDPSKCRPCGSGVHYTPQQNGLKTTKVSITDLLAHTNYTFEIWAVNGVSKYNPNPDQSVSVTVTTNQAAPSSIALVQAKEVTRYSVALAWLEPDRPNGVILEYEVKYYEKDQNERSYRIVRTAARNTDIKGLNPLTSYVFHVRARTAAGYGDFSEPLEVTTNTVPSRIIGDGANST

B1: KYL peptide (peptide)
peptide: KYLPYWPVLSSL
notes: synthetic peptide
IC50 [1]: ~6100 nM | IC50 of suppression of EphA4 autophosphorylation induced by mouse EphrinA1 in the hippocampal neurons [2]: 9910 nM | IC50 [3]: 5290 nM | IC50 [4]: 1310 nM | IC50 [5]: ~1300 nM | IC50 [6]: 6120 nM | IC50 [7]: ~1600 nM | IC50 [8]: 1570 nM | IC50 [9]: 1290 nM

B2: antibody A-Fab (Fab, V domains shown, not shown: a dimerising Fc or GST)
VH: QIQLVQSGPELKKPGETVKISCKASGYTFTDYSMHWVKQAPGKGLKWMGWINTETGEPTYADDFKGRFAFSLETSASTAYLQINNLKNEDTATYFCARIPLYYYGSRYWYFDVWGAGTTVTVSS
VL: DIQMTQSPASLSVSVGETVTITCRASENIYRNLAWYQQKQGKSPQLLVYAATNLADGVPSRFSGSGSGTQYSLKINSLQSEDFGSYYCQHFWGTPWTFGGGTKLEIKR
notes: made by papain digestion of antibody A; also called Fab fragment of antibody A
koff [10]: 0.0373 s⁻¹ | kon [10]: 921000 M⁻¹ s⁻¹ | koff [11]: 0.042 s⁻¹ | kon [11]: 931000 M⁻¹ s⁻¹ | IC50 [3]: 438 nM | fold activity against KYL peptide [3]: ≥ 10 fold | Kd [12]: 45.1 nM | Kd [13]: 40.4 nM

B3: antibody A-F(ab')2 (other, not shown: a dimerising Fc or GST)
heavy: B2 VH
light: DIQMTQSPASLSVSVGETVTITCRASENIYRNLAWYQQKQGKSPQLLVYAATNLADGVPSRFSGSGSGTQYSLKINSLQSEDFGSYYCQHFWGTPWTFGGGTKLEIKRADAAPTVSIFPPSSEQLTSGGASVVCFLNNFYPKDINVKWKIDGSERQNGVLNSWTDQDSKDSTYSMSSTLTLTKDEYERHNSYTCEATHKTSTSPIVKSFNRNEC
notes: made by pepsin digestion of antibody A; also called F(ab')2 fragment of antibody A
koff [14]: 0.0333 s⁻¹ | kon [14]: 629000 M⁻¹ s⁻¹ | Kd [15]: 0.0229 nM | Kd [16]: 0.053 nM | koff [17]: 0.000205 s⁻¹ | kon [17]: 8.98e+06 M⁻¹ s⁻¹ | IC50 [3]: 2.9 nM | fold activity against KYL peptide [3]: ≥ 1000 fold
